Experimental data from article PMC4089491, “BuD, a helix–loop–helix DNA-binding domain for genome modification”.

Key:
[1] = molecular target: BurrH Variant4 (RAG1) (Burkholderia rhizoxinica) (UniProt E5AV36); assay: ITC; conditions: FA and ITC: 25 mM HEPES pH 8, 150 mM NaCl, 0.2 mM TCEP, 298 K, SPR: HBS-EP+ (10 mM HEPES pH 7.4, 150 mM NaCl, 3 mM EDTA, 0.05% P20)
[2] = molecular target: Variant4 ND (Burkholderia rhizoxinica) (UniProt E5AV36); assay: ITC; conditions: FA and ITC: 25 mM HEPES pH 8, 150 mM NaCl, 0.2 mM TCEP, 298 K, SPR: HBS-EP+ (10 mM HEPES pH 7.4, 150 mM NaCl, 3 mM EDTA, 0.05% P20)
[3] = molecular target: BurrH Variant1 (CAPNS1) (Burkholderia rhizoxinica) (UniProt E5AV36); assay: ITC; conditions: FA and ITC: 25 mM HEPES pH 8, 150 mM NaCl, 0.2 mM TCEP, 298 K, SPR: HBS-EP+ (10 mM HEPES pH 7.4, 150 mM NaCl, 3 mM EDTA, 0.05% P20)
[4] = molecular target: Variant1 ND (Burkholderia rhizoxinica) (UniProt E5AV36); assay: ITC; conditions: FA and ITC: 25 mM HEPES pH 8, 150 mM NaCl, 0.2 mM TCEP, 298 K, SPR: HBS-EP+ (10 mM HEPES pH 7.4, 150 mM NaCl, 3 mM EDTA, 0.05% P20)
[5] = molecular target: BurrH Variant2 (CAPNS1) (Burkholderia rhizoxinica) (UniProt E5AV36); assay: ITC; conditions: FA and ITC: 25 mM HEPES pH 8, 150 mM NaCl, 0.2 mM TCEP, 298 K, SPR: HBS-EP+ (10 mM HEPES pH 7.4, 150 mM NaCl, 3 mM EDTA, 0.05% P20)
[6] = molecular target: Variant2 ND (Burkholderia rhizoxinica) (UniProt E5AV36); assay: ITC; conditions: FA and ITC: 25 mM HEPES pH 8, 150 mM NaCl, 0.2 mM TCEP, 298 K, SPR: HBS-EP+ (10 mM HEPES pH 7.4, 150 mM NaCl, 3 mM EDTA, 0.05% P20)
[7] = molecular target: BurrH Variant3 (RAG1) (Burkholderia rhizoxinica) (UniProt E5AV36); assay: ITC; conditions: FA and ITC: 25 mM HEPES pH 8, 150 mM NaCl, 0.2 mM TCEP, 298 K, SPR: HBS-EP+ (10 mM HEPES pH 7.4, 150 mM NaCl, 3 mM EDTA, 0.05% P20)
[8] = molecular target: Variant3 ND (Burkholderia rhizoxinica) (UniProt E5AV36); assay: ITC; conditions: FA and ITC: 25 mM HEPES pH 8, 150 mM NaCl, 0.2 mM TCEP, 298 K, SPR: HBS-EP+ (10 mM HEPES pH 7.4, 150 mM NaCl, 3 mM EDTA, 0.05% P20)
AvrBs3 TALE = assay: SPR; conditions: FA and ITC: 25 mM HEPES pH 8, 150 mM NaCl, 0.2 mM TCEP, 298 K, SPR: HBS-EP+ (10 mM HEPES pH 7.4, 150 mM NaCl, 3 mM EDTA, 0.05% P20)
BurrH [9] = molecular target: T1, BurrH (Burkholderia rhizoxinica, UniProt E5AV36 1-771); assay: SPR; conditions: FA and ITC: 25 mM HEPES pH 8, 150 mM NaCl, 0.2 mM TCEP, 298 K, SPR: HBS-EP+ (10 mM HEPES pH 7.4, 150 mM NaCl, 3 mM EDTA, 0.05% P20)
T1 sequence: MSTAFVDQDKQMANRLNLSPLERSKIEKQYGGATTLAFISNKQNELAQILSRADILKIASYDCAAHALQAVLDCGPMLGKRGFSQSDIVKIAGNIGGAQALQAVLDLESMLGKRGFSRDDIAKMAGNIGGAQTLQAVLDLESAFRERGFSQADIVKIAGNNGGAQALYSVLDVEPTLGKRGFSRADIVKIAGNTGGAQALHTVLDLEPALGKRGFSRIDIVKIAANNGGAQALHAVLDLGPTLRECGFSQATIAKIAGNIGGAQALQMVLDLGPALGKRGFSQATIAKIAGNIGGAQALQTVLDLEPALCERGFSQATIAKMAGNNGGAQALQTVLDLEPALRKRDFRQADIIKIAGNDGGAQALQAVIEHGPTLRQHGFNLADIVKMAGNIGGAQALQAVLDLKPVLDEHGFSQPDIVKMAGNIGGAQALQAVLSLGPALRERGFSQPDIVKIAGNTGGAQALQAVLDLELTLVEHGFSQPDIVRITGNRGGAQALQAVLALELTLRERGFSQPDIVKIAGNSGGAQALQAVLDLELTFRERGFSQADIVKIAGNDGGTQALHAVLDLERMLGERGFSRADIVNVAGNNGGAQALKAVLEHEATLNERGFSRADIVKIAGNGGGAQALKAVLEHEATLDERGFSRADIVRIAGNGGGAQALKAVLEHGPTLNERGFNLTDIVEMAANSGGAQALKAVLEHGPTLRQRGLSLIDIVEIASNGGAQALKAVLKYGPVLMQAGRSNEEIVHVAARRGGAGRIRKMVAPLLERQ

BurrH [10] = molecular target: T1, BurrH; assay: fluorescence anisotropy; FA and ITC: 25 mM HEPES pH 8, 150 mM NaCl, 0.2 mM TCEP, 298 K; SPR: HBS-EP+ (10 mM HEPES pH 7.4, 150 mM NaCl, 3 mM EDTA, 0.05% P20), 298 K; conditions: protein: recombinant; label: 5' 6-FAM
BurrH [11] = molecular target: T1, BurrH; assay: ITC; FA and ITC: 25 mM HEPES pH 8, 150 mM NaCl, 0.2 mM TCEP, 298 K; SPR: HBS-EP+ (10 mM HEPES pH 7.4, 150 mM NaCl, 3 mM EDTA, 0.05% P20), 298 K; conditions: protein: recombinant

“TTGTATATATTTAAGCACTTATA (double strand) [V4 target]” showed a Kd [1] of 12 nM and a Kd [2] of 14 nM.

In the case of “TTGGCTCTGTGGGCTCGGGTCTA (double strand) [V1 target]”, the Kd [3] is reported as 29 nM and the Kd [4] is reported as 29 nM.

For “TTTTGTCCGGGAACCCAGAGCTA (double strand) [V2 target]”, the Kd [5] was 149 nM and the Kd [6] was 215 nM.

“TTCAGTGTTTATGGTTACTTATA (double strand) [V3 target]” showed a Kd [7] of 30 nM and a Kd [8] of 26 nM.

BurrH target, SPR duplex showed a Kd (AvrBs3 TALE) of 1000 nM and a Kd (BurrH [9]) of 0.36 nM.

AvrBs3 target, SPR duplex was tested, and the Kd (AvrBs3 TALE) was 0.22 nM.

B1: FA duplex 1 (A4 A12 A13) (dsDNA)
DNA 1: TTAAGAGAAGCAAAAACGTTATA
DNA 2: TATAACGTTTTTGCTTCTCTTAA
B1 showed a Kd (BurrH [10]) of 40 ± 3 nM.

B2: FA duplex 2 (C4 C12 A13) (dsDNA)
DNA 1: TTAAGCGAAGCAACAACGTTATA
DNA 2: TATAACGTTGTTGCTTCGCTTAA
Molecule B2 has a Kd (BurrH [10]) of 44 ± 9 nM.

B3: FA duplex 12 (T4 T12 G13) (dsDNA)
DNA 1: TTAAGTGAAGCAATGACGTTATA
DNA 2: TATAACGTCATTGCTTCACTTAA
For B3, the Kd (BurrH [10]) was 63 ± 5 nM.

B4: FA duplex 13 (A4 A12 C13) (dsDNA)
DNA 1: TTAAGAGAAGCAAACACGTTATA
DNA 2: TATAACGTGTTTGCTTCTCTTAA
B4 gave a Kd (BurrH [10]) of 39 ± 10 nM.

B5: FA duplex 14 (C4 C12 C13) (dsDNA)
DNA 1: TTAAGCGAAGCAACCACGTTATA
DNA 2: TATAACGTGGTTGCTTCGCTTAA
For B5, the Kd (BurrH [10]) was 47 ± 5 nM.

B6: FA duplex 15 (G4 G12 C13) (dsDNA)
DNA 1: TTAAGGGAAGCAAGCACGTTATA
DNA 2: TATAACGTGCTTGCTTCCCTTAA
With B6 the Kd (BurrH [10]) was 59 ± 6 nM.

B7: BurrH DNA target duplex (dsDNA)
DNA 1: TTAAGAGAAGCAAATACGTTATA
DNA 2: TATAACGTATTTGCTTCTCTTAA
With B7 the Kd (BurrH [11]) was 25 ± 4.3 nM.

B8: BurrH DNA target/RNA hybrid (DNA:RNA)
DNA: TTAAGAGAAGCAAATACGTTATA
RNA: UAUAACGUAUUUGCAACUCUUAA
Work on B8 yielded a Kd (BurrH [11]; blunt) of 56 ± 6.5 nM.

B9: BurrH RNA target/DNA hybrid (DNA:RNA)
RNA: UUAAGAGAAGCAAAUACGUUAUA
DNA: TATAACGTATTTGCAACTCTTAA
In the case of B9, the Kd (BurrH [11]; blunt) is reported as 1890 ± 438 nM.

B10: FA duplex 3 (G4 G12 A13) (dsDNA)
DNA 1: TTAAGGGAAGCAAGAACGTTATA
DNA 2: TATAACGTTCTTGCTTCCCTTAA
B10 showed a Kd (BurrH [10]) of 81 ± 12 nM.

B11: BurrH target A0 (dsDNA)
DNA 1: TAAAGAGAAGCAAATACGTTATA
DNA 2: TATAACGTATTTGCTTCTCTTTA
With B11 the Kd (BurrH [11]) was 15 ± 2.8 nM.

B12: BurrH target C0 (dsDNA)
DNA 1: TCAAGAGAAGCAAATACGTTATA
DNA 2: TATAACGTATTTGCTTCTCTTGA
Work on B12 yielded a Kd (BurrH [11]) of 15 ± 3.2 nM.

B13: BurrH target G0 (dsDNA)
DNA 1: TGAAGAGAAGCAAATACGTTATA
DNA 2: TATAACGTATTTGCTTCTCTTCA
Work on B13 yielded a Kd (BurrH [11]) of 24 ± 6.3 nM.

B14: FA duplex 4 (T4 T12 A13) (dsDNA)
DNA 1: TTAAGTGAAGCAATAACGTTATA
DNA 2: TATAACGTTATTGCTTCACTTAA
For B14, the Kd (BurrH [10]) was 61 ± 8 nM.

B15: FA duplex 5 (A4 A12 T13) (dsDNA)
DNA 1: TTAAGAGAAGCAAATACGTTATA
DNA 2: TATAACGTATTTGCTTCTCTTAA
B15 showed a Kd (BurrH [10]) of 32 ± 7 nM.

B16: FA duplex 6 (C4 C12 T13) (dsDNA)
DNA 1: TTAAGCGAAGCAACTACGTTATA
DNA 2: TATAACGTAGTTGCTTCGCTTAA
B16 gave a Kd (BurrH [10]) of 43 ± 10 nM.

B17: FA duplex 7 (G4 G12 T13) (dsDNA)
DNA 1: TTAAGGGAAGCAAGTACGTTATA
DNA 2: TATAACGTACTTGCTTCCCTTAA
B17 gave a Kd (BurrH [10]) of 42 ± 7 nM.

B18: FA duplex 9 (A4 A12 G13) (dsDNA)
DNA 1: TTAAGAGAAGCAAAGACGTTATA
DNA 2: TATAACGTCTTTGCTTCTCTTAA
For B18, the Kd (BurrH [10]) was 35 ± 6 nM.

B19: FA duplex 10 (C4 C12 G13) (dsDNA)
DNA 1: TTAAGCGAAGCAACGACGTTATA
DNA 2: TATAACGTCGTTGCTTCGCTTAA
Molecule B19 has a Kd (BurrH [10]) of 49 ± 10 nM.

B20: FA duplex 11 (G4 G12 G13) (dsDNA)
DNA 1: TTAAGGGAAGCAAGGACGTTATA
DNA 2: TATAACGTCCTTGCTTCCCTTAA
B20 gave a Kd (BurrH [10]) of 90 ± 12 nM.
